Results as given in the supplement of paper PMC9233669.
This sample holds only a part of the variants without activity.

Assays:
[1] = test system: biotinyl-Phe-oxazolone; assay: self-aminoacylation, catalytic enhancement (BFO) (fold over background); higher = more active; k-Seq, kA / k0A0; sequences stand for … in GGGAAUGGAUCCACAUCUACGAAUUC…UUCACUGCAGACUUGACGAAGCUG
Outline: (§1)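 Working in 50 μL HEPES/NaCl/KCl/MgCl2/CaCl2 buffer with 5% acetonitrile at pH 6.9–7.0, mutagenized RNA pools (0.43 μM; 21-nt variable region) were reacted with 2–1250 μM of each biotinyl-aminoacyl-oxazolone for 90 minutes at room temperature. Streptavidin capture followed, with quantification by triplicate qPCR and Illumina sequencing. Catalytic enhancement is reported as median kA over the uncatalyzed rate, the low-activity peak of a bimodal Gaussian fit to the data.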

[2] = test system: biotinyl-Ile-oxazolone; assay: self-aminoacylation, catalytic enhancement (BIO) (fold over background); higher = more active; k-Seq, kA / k0A0; sequences stand for … in GGGAAUGGAUCCACAUCUACGAAUUC…UUCACUGCAGACUUGACGAAGCUG
Outline: as §1

[3] = test system: biotinyl-Met-oxazolone; assay: self-aminoacylation, catalytic enhancement (BMO) (fold over background); higher = more active; k-Seq, kA / k0A0; sequences stand for … in GGGAAUGGAUCCACAUCUACGAAUUC…UUCACUGCAGACUUGACGAAGCUG
Outline: as §1

[4] = test system: biotinyl-Val-oxazolone; assay: self-aminoacylation, catalytic enhancement (BVO) (fold over background); higher = more active; k-Seq, kA / k0A0; sequences stand for … in GGGAAUGGAUCCACAUCUACGAAUUC…UUCACUGCAGACUUGACGAAGCUG
Outline: as §1

[5] = test system: biotinyl-Leu-oxazolone; assay: self-aminoacylation, catalytic enhancement (BLO) (fold over background); higher = more active; k-Seq, kA / k0A0; sequences stand for … in GGGAAUGGAUCCACAUCUACGAAUUC…UUCACUGCAGACUUGACGAAGCUG
Outline: as §1

[6] = test system: biotinyl-Trp-oxazolone; assay: self-aminoacylation, catalytic enhancement (BWO) (fold over background); higher = more active; k-Seq, kA / k0A0; sequences stand for … in GGGAAUGGAUCCACAUCUACGAAUUC…UUCACUGCAGACUUGACGAAGCUG
Outline: as §1

Sequence	self-aminoacylation [1]	self-aminoacylation [2]	self-aminoacylation [3]	self-aminoacylation [4]	self-aminoacylation [5]	self-aminoacylation [6]
AUUCGCCUGGGUCAUCGGGUG [Fam2.2 aminoacylation ribozyme variant]	63.1	6	12.9	7.88	15.8	14.1
AUUGCCCUGGUCAUCGAGUGG [Fam2.1 aminoacylation ribozyme variant]	197	9.44	30.9	10.9	29.4	29.8
CCACACUUCCUGCAAUCGGUC [Fam1B.1 aminoacylation ribozyme variant]	0.777	1.04	0.859	1.19	1.11	0.961
AUUAGCAUGGUCAUCGAGUGA [Fam2.1 aminoacylation ribozyme variant]	3.31	2.87	3.11	2.64	3.39	3.81
CAGUUUGCUAAUAGUUGCAAG [Fam3.1 aminoacylation ribozyme variant]	1.55	1.53	1.44	1.23	1.5	1.18
AUUCAUCUAGGUCAUCGGGCG [Fam2.2 aminoacylation ribozyme variant]	14.7	2.58	3.33	2.71	3.27	2.66
AAGUUUGCUAGAAGUCGCAAG [Fam3.1 aminoacylation ribozyme variant]	0.798	0.674	0.802	0.656	0.824	1.51
AUUACCCUGGCCAUCGAGUGG [Fam2.1 aminoacylation ribozyme variant]	2.71	1.26	1.72	1.17	1.95	1.66
AUUACCCAGGUCAUUGAGUGA [Fam2.1 aminoacylation ribozyme variant]	53.1	4.59	8.2	4.36	9.04	10.4
AGUCACCUAGUUCAUCGGGUG [Fam2.2 aminoacylation ribozyme variant]	24	3.71	4.14	3.29	4.05	5.16
AAUCCCCUGGUCAUCGAGUGA [Fam2.1 aminoacylation ribozyme variant]	34.4	3.35	6.29	3.96	6.5	5.97
CUACUUCAAACAAACGUUCUG [Fam1A.1 aminoacylation ribozyme variant]	0.686	0.591	0.529	0.622	0.579	0.591
AAGUGUGCCAAUAGUCGCAAG [Fam3.1 aminoacylation ribozyme variant]	2.66	2.38	1.97	1.61	1.78	1.66
AUGUUUGCUAGUAGUCGCAAG [Fam3.1 aminoacylation ribozyme variant]	1.15	0.957	1.15	0.827	0.911	0.975
AAGUUUGCUAAUCGGCGCAAG [Fam3.1 aminoacylation ribozyme variant]	2.32	0.842	1.03	1.14	1.05	0.944
AAGUUUGCUAAUGGUCGCGAG [Fam3.1 aminoacylation ribozyme variant]	8.04	1.21	1.15	1.27	1.59	1.82
AUUACCCUGGUCACCGGGUGA [Fam2.1 aminoacylation ribozyme variant]	87.4	6.24	14.5	7.91	14.8	14.1
CUACUUCAAACGCUCGGUCUG [Fam1A.1 aminoacylation ribozyme variant]	0.793	0.741	0.592	0.828	1.09	0.637
AUUACCAUGGUCAUUGAGUGA [Fam2.1 aminoacylation ribozyme variant]	63.6	5.76	11.8	5.51	12.1	13.8
AUUUACCUAGGUCAUCGGAUG [Fam2.2 aminoacylation ribozyme variant]	0.723	0.906	0.954	0.974	0.846	0.671
AUUCACCUAGGUCAUCAGGUG [Fam2.2 aminoacylation ribozyme variant]	1.31	1.19	1.39	1.3	1.56	1.39
AUUUACCUAGGUCAACGGGUG [Fam2.2 aminoacylation ribozyme variant]	29.2	2.56	4.05	2.26	4.95	3.56
AUUUACCUGGGUCAUCGGGUG [Fam2.2 aminoacylation ribozyme variant]	57.3	8.99	18.5	10.3	22.1	17.2
AUGUUCGCUAAUAGUCGCAAG [Fam3.1 aminoacylation ribozyme variant]	3.79	1.58	1.65	1.55	1.14	1.67
AUUACCCGGGUCAUCGAGUCA [Fam2.1 aminoacylation ribozyme variant]	1.05	1.29	1.32	1.16	1.22	0.967
